Experimental data published in patent US20250121082A1 (SHANDONG BOAN BIOTECHNOLOGY, published 2025).

T1: Human CD228 protein (human, UniProt P08582 20-708, limits assumed)
T1 construct: Recombinant protein made in CHO cells, purified over a Ni column; The printed entry begins with the leader (MRGPSG...) and ends with ten His; also called hCD228; CD228-His protein
T1 sequence: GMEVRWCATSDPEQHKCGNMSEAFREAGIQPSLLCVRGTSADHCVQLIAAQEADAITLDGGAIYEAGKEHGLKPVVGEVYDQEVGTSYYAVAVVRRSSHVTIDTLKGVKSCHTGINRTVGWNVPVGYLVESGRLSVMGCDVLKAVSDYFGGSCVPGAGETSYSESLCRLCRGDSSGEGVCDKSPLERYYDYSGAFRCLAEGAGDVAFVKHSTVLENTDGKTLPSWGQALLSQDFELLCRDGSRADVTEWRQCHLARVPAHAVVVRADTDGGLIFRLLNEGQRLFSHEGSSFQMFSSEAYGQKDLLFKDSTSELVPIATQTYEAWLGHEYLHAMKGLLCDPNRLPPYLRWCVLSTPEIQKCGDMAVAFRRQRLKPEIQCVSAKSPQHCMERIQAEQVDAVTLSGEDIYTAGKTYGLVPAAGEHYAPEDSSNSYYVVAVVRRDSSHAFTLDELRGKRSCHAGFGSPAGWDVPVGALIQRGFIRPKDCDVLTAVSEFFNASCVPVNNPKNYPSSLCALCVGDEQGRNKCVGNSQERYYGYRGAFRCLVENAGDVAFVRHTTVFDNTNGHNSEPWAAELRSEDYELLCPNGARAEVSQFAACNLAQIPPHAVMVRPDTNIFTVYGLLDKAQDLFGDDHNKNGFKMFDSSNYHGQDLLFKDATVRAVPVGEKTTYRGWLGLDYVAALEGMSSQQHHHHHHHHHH


Columns and labels:
Human CD228 protein [1] = target: T1, Human CD228 protein; assay: Octet competition on His-chip CD228; competitor: CA149
Protocol: (§1) CD228 proteins were immobilized on His chips at 10 μg/mL with a threshold of 0.5 nm. The first CD228 antibody (30 μg/mL) was immobilized, and the competitive binding of the second CD228 antibody (30 μg/mL) was analyzed. The Octet 8K system was used to analyze the response of antibody 2 and to determine whether antibody 1 and antibody 2 were in competition.
(§2) The final competition analysis was conducted using the following calculation method: 1—response value/blank value.

Human CD228 protein [2] = target: T1, Human CD228 protein; assay: Octet competition on His-chip CD228; competitor: CA185
Protocol: as §1, §2

Human CD228 protein [3] = target: T1, Human CD228 protein; assay: affinity assay (method not given)

competition (1-response value/blank value) (Human CD228 protein [1]) [%]	competition (1-response value/blank value) (Human CD228 protein [2]) [%]	Kd (Human CD228 protein [3]) [nM]	Binder
101	101	–	CA13 (antibody, human IgG1, kappa, V domains shown, Intact IgG1 from fully human antibody-transgenic mice) VH: EVQLVESGGGVVQPGRSLRLSCAASGFTFSSYAMHWVRQAPGKGLEWVAVISYDGSNKYYADSVKGRFTISRDNSKNTLFLQMNSLRAEDTAVYYCARDVYHYGSRSPYYYGMDVWGQGTTVTVSS VL: DIVMTQSPSSLSASVGDRVTITCRASQGISNYLAWFQQKPGKVPKLLIYAASTLQSGVPSRFSGSGSGTDFTLTISSLQPEDVATYYCQKYNSAPFTFGPGTKVDIKR
101	101	–	CA518 (antibody, human IgG1, kappa, V domains shown, Intact IgG1) VH: EVQLVESGGGVVQPGRSLRLSCAASGFTFSSYAMHWVRQAPGKGLEWVAVISYDGSNKYHADSVKGRFTISRDNSKNTLFLQMNSLRAEDTAVYYCVRDVYHYGSRSPYYYGMDVWGQGTTVTVSS VL: DIQMTQSPSSVSASVGDRVTITCRASQGISSWLAWYQQKPGKAPKLLIYAASSLQSGVPSRFSGSGSGTDFTLTISSLQPEDVATYYCQKYNSAPFTFGPGTKVDIKR
103	103	–	CA67 (antibody, human IgG1, kappa, V domains shown, Intact IgG1) VH: EVQLVESGGGVVQPGRSLRLSCAASGFTFSSYAMHWVRQAPGKGLEWVAVISYDGSNKYYADSVKGRFTISRDNSKNTLYLQMNSLRAEDTAVYYCARDVYHYGSRSPYYYGMDVWGQGTTVTVSS VL: DIQMTQSPSSLSASVGDRVTITCRASQAISNYLAWYQQKPGKVPKLLIYAASTLHPGVPSRFSGSGSGTDFTLTISSLQPEDVATYYCQKYNSAPFTFGPGTKVDIKR
-6	-5	–	reference antibody hL49 (antibody, human IgG1, kappa, V domains shown, also called H149; hL49 analogy) VH: QVQLQESGPGLVKPSETLSLTCTVSGDSITSGYWNWIRQPPGKGLEYIGYISDSGITYYNPSLKSRVTISRDTSKNQYSLKLSSVTAADTAVYYCARRTLATYYAMDYWGQGTLVTVSS VL: DFVMTQSPLSLPVTLGQPASISCRASQSLVHSDGNTYLHWYQQRPGQSPRLLIYRVSNRFSGVPDRFSGSGSGTDFTLKISRVEAEDVGVYYCSQSTHVPPTFGQGTKLEIKR
-2	-3	–	BA352 (antibody, human IgG1, kappa, V domains shown, Intact IgG1) VH: EVQLVESGGGVVQPGRSLRLSCAASGFTFSSYAMHWVRQAPGKGLEWVAVISYDGSNKYYADSVKGRFTISRDNSKNTLYLQMNSLRAEDTAVYYCARGPYLAAAGTALTFDIWGQGTMVTVSS VL: DIQMTQSPSAMSASVGDRVTITCRASQGINNYLAWFQQKPGKVPKRLIYAASSLQSGVPSRFSGSGSGTEFTLTISSLQPEDFATYYCLQHNSYPFTFGPGTKVDIKR
99	98	1.99	CA149 (antibody, human IgG1, kappa, V domains shown, Intact IgG1; also called CA149 antibody) VH: EVQLVESGGGVVQPGRSLRLSCAASGFTFSSYAMHWVRQAPGKGLEWVAVISFDGSNKYYTDSVKGRFTISRDNSKNTLYLQMNSLRAEDTAVYYCAREVPYYYGSGPFDYWGQGTLVTVSS VL: EIVLTQSPATLSVSPGERATLSCRASQSVSSNLAWYQQKPGQAPRHLIDGASSRASGIPDRFSGSGSGTDFTLTISRLEPEDFAVYYCQQYGSSPPFTFGPGTKVDIKR
98	99	–	CA185 (antibody, human IgG1, kappa, V domains shown, Intact IgG1) VH: EVQLVESGGGVVQPGRSLRLSCAASGFTFSSYAMHWVRQAPGKGLEWVAVISYDGSNKYYADSVKGRFTISRDNSKNTLYLQMNSLRAEDTAVYYCAREVPYYYGSGPFDYWGQGTLVTVSS VL: EIVLTQSPGTLSLSPGERATLSCRASQSVSSSSLAWYQQKPGQAPRHLIDGASSRASGIPDRFSGSGSGTDFTLTISRLEPEDFAVYYCQQYGSSYTFGQGTKVDIKR
